Details of this data set: species or system Bacillus subtilis. The source says: Figure S1 CtpB Autocleavage and Dimerization, Related to Figures 1 and 2 (A) SDS-PAGE analysis monitoring auto-degradation of CtpB. […] (C) Comparison of the gelfiltration profiles of wild-type CtpB and a Δ86 construct lacking the N-terminal dimerization domain. An SDS-PAGE analysis is shown below the chromatograms. (D) Cleavage assays comparing the activity of wild-type and Δ86 CtpB against the 4B predigested 4FAproc substrate.

B1: WT: wild-type CtpB, PDZ-protease of B. subtilis (protein, UniProt O35002 24-480, looked up)
Carboxy-terminal processing …: GINLLEMDKPQTAAVPATAQADSERDKAMDKIEKAYELISNEYVEKVDREKLLEGAIQGMLSTLNDPYSVYMDKQTAKQFSDSLDSSFEGIGAEVGMEDGKIIIVSPFKKSPAEKAGLKPNDEIISINGESMAGKDLNHAVLKIRGKKGSSVSMKIQRPGTKKQLSFRIKRAEIPLETVFASEKKVQGHSVGYIAISTFSEHTAEDFAKALRELEKKEIEGLVIDVRGNPGGYLQSVEEILKHFVTKDQPYIQIAERNGDKKRYFSTLTHKKAYPVNVITDKGSASASEILAGALKEAGHYDVVGDTSFGKGTVQQAVPMGDGSNIKLTLYKWLTPNGNWIHKKGIEPTIAIKQPDYFSAGPLQLKEPLKVDMNNEDVKHAQVLLKGLSFDPGREDGYFSKDMKKAVMAFQDQNKLNKTGVIDTRTAETLNQQIEKKKSDEKNDLQLQTALKSLFVN
As for B1, the auto-degradation entry was “auto-degraded at position 36 and 42”.

B2: CtpBS309A: inactive CtpB S309A mutant (protein, UniProt O35002 24-480, looked up, variant S309A)
Carboxy-terminal processing …: GINLLEMDKPQTAAVPATAQADSERDKAMDKIEKAYELISNEYVEKVDREKLLEGAIQGMLSTLNDPYSVYMDKQTAKQFSDSLDSSFEGIGAEVGMEDGKIIIVSPFKKSPAEKAGLKPNDEIISINGESMAGKDLNHAVLKIRGKKGSSVSMKIQRPGTKKQLSFRIKRAEIPLETVFASEKKVQGHSVGYIAISTFSEHTAEDFAKALRELEKKEIEGLVIDVRGNPGGYLQSVEEILKHFVTKDQPYIQIAERNGDKKRYFSTLTHKKAYPVNVITDKGSAAASEILAGALKEAGHYDVVGDTSFGKGTVQQAVPMGDGSNIKLTLYKWLTPNGNWIHKKGIEPTIAIKQPDYFSAGPLQLKEPLKVDMNNEDVKHAQVLLKGLSFDPGREDGYFSKDMKKAVMAFQDQNKLNKTGVIDTRTAETLNQQIEKKKSDEKNDLQLQTALKSLFVN
In the case of B2, the auto-degradation result is “no further degradation”.

Values taken from article PMC3808539, “CtpB Assembles a Gated Protease Tunnel Regulating Cell-Cell Signaling during Spore Formation in Bacillus subtilis” (Cell, 2013).
